Results: paper PMC5173035

Key:
[1] = target: M1.HpyAVI, DNA N6-adenine methyltransferase from Helicobacter pylori 26695 (Helicobacter pylori 26695); assay: crystal structure; cofactor-free (3.0 Å, four monomers in the asymmetric unit) and AdoMet-bound (3.1 Å, eight monomers) crystals; dimer with the two monomers related by a two-fold axis; interface analysed with PDBePISA
[2] = target: M1.HpyAVI, DNA N6-adenine methyltransferase from Helicobacter pylori 26695 (Helicobacter pylori 26695); assay: SEC; Superdex 75 10/300 column on FPLC, 0.05, 0.1, 0.2, 0.5 mg/ml protein loaded; calibrated with gel filtration calibration kit LMW

M1.HpyAVI, DNA N6-adenine methyltransferase from Helicobacter pylori 26695 (enzyme)
stoichiometry N [1]: 2 | stoichiometry N [2]: 2
